Literature values, collected in publication PMC6005658.

Biological target: arodyn (1)
Assay: radioligand binding

Chain of μ opioid receptor (P33535 whole entry): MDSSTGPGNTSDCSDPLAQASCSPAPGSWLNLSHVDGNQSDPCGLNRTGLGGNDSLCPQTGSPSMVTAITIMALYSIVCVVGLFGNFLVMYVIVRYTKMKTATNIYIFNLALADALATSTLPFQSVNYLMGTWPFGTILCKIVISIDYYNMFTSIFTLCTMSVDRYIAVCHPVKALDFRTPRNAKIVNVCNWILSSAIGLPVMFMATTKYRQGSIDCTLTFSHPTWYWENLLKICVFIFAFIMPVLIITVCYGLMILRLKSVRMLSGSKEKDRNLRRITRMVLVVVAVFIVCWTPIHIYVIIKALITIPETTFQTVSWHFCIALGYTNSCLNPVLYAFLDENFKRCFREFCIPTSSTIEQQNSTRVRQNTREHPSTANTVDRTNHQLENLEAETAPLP
Chain of κ opioid receptor (P34975 whole entry): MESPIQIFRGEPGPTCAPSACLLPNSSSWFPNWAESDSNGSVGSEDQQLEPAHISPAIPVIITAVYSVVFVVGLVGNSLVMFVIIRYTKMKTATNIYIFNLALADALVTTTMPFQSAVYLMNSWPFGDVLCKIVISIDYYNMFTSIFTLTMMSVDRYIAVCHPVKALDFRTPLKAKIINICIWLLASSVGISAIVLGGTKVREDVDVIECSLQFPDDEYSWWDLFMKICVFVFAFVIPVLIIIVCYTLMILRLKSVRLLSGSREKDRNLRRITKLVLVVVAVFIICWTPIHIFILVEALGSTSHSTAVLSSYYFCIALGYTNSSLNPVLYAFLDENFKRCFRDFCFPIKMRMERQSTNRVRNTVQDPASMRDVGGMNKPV

Ki [nM] | Substance
10 | κ opioid receptor (from UniProt P34975)
1750 | μ opioid receptor (from UniProt P33535)
